Reference: patent US20230039976A1

Experiments:
[1] = target: programmed cell death protein 1 (PD-1) on tumor infiltrating lymphocytes (human) (UniProt Q15116); assay: flow cytometry of melanoma tumor digest M1156; EH12.2H7 staining; percent of CD3+ cells stained
[2] = target: programmed cell death protein 1 (PD-1) on tumor infiltrating lymphocytes (human) (UniProt Q15116); assay: flow cytometry of ovarian tumor digest OV8074; EH12.2H7 staining; percent of CD3+ cells stained
[3] = target: programmed cell death protein 1 (PD-1) on tumor infiltrating lymphocytes (human) (UniProt Q15116); assay: flow cytometry of head and neck tumor digest H3046; EH12.2H7 staining; percent of CD3+ cells stained

UniProt Q15116, sequence (Q15116 25-288): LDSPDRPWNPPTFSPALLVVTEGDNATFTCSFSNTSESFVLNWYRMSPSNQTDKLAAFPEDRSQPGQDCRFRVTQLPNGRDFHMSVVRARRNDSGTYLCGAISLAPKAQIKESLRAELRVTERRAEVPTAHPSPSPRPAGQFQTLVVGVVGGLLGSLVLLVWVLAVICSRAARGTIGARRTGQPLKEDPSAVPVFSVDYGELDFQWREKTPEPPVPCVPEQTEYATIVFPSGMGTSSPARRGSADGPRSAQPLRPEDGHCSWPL

B1: anti-PD-1 antibody clone EH12.2H7 (BioLegend, Cat #329906) (antibody, from another filing, V domains shown)
VH: QVQLQQSGAELAKPGASVQMSCKASGYSFTSSWIHWVKQRPGQGLEWIGYIYPSTGFTEYNQKFKDKATLTADKSSSTAYMQLSSLTSEDSAVYYCARWRDSSGYHAMDYWGQGTSVTVSS
VL: DIVLTQSPASLTVSLGQRATISCRASQSVSTSGYSYMHWYQQKPGQPPKLLIKFGSNLESGIPARFSGSGSGTDFTLNIHPVEEEDTATYYCQHSWEIPYTFGGGTKLEIK
- Pre-sort % PD-1+ (of CD3+) [1]: 93%
- Pre-sort % PD-1+ (of CD3+) [2]: 70%
- Pre-sort % PD-1+ (of CD3+) [3]: 13%
